# Substitutions are numbered along the chain they refer to.
# T1: biotinylated recombinant human IL-12Rβ2 (human, UniProt Q99665 24-622, random biotinylated)
# T1 construct: Recombinant protein produced in-house; also called hIL-12RB2; human IL-12RB2
# T1 sequence: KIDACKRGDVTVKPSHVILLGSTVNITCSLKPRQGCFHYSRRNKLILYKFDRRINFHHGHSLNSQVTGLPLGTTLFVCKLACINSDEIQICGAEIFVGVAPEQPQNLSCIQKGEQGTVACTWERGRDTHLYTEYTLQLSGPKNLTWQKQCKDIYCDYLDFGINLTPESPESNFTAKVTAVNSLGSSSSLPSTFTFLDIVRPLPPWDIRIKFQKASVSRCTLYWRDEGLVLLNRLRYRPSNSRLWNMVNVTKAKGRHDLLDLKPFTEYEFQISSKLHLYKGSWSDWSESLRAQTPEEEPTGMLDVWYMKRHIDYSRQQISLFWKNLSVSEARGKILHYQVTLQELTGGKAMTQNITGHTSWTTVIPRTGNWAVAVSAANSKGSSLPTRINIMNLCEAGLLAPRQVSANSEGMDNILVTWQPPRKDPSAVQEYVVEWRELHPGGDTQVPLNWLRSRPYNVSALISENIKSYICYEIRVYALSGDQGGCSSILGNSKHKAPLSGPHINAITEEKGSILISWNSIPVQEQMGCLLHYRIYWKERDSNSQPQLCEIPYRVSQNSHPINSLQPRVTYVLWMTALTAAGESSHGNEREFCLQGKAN
# T2: biotinylated recombinant mouse IL-12Rβ2 (mouse, UniProt P97378 24-637, random biotinylated)
# T2 construct: Recombinant protein produced in-house; also called mIL-12RB2; mouse IL-12RB2
# T2 sequence: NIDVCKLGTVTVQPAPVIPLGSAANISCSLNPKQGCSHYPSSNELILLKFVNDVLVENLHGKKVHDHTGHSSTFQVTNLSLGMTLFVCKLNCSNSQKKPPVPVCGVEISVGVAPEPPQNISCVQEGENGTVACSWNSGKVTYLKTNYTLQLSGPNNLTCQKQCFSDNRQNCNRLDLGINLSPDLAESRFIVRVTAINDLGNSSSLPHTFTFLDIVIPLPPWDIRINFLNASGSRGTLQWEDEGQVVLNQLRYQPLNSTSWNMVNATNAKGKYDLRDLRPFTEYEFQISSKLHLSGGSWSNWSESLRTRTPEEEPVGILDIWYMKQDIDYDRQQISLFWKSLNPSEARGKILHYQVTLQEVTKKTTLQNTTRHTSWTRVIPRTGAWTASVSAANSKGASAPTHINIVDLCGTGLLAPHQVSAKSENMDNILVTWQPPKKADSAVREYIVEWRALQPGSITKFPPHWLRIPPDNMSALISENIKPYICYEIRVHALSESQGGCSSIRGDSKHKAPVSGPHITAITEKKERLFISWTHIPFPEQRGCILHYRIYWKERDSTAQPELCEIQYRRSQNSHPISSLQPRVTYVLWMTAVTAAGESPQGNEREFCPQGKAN
# B1: anti-IL-12Rβ2 VHH clone 3CAHS170 (clone ID 20406) (VHH, not shown: small tags and cut ends)
# VHH: QVQLQESGGGLVQAGGSLRLSCVASGRTFSSYAMGWFRQGPGKEREFVAAISWSGVSIYYADSVKGRFTISRDNAKNTVYLQMNSLEPEDTAVYYCAGTEGAYTVAGGSTFGYDMDYWGKGTQVTVSS
# notes: periplasmic extract
# B2: anti-IL-12Rβ2 VHH clone 2CAH27 (clone ID 20354) (VHH, not shown: small tags and cut ends)
# VHH: B1 VHH with L11S, A14S
# notes: periplasmic extract
# B3: anti-IL-12Rβ2 VHH clone 3CAH48 (clone ID 20360) (VHH, not shown: small tags and cut ends)
# VHH: B1 VHH with V23A, I58T, E87R, G98A
# notes: periplasmic extract
# B4: anti-IL-12Rβ2 VHH clone 3CAHS142 (clone ID 20401) (VHH, not shown: small tags and cut ends)
# VHH: QVQLQESGGGLVQAGESLTLSCIASGVIKDYAMGWFRQAPGKEREFVAAISWSGVSIYYADSVKGRFTISRDNAKNTVYLQMNSLEPEDTAVYYCAGTEGAYTVAGGSTFGYDMDYWGKGTQVTVSS
# notes: periplasmic extract
# B5: anti-IL-12Rβ2 VHH clone 3CRHS142 (clone ID 20434) (VHH, not shown: small tags and cut ends)
# VHH: QVQLQESGGGLVQAGGSLRLSCVSSQTLVGIEAMGWYRQAPGKQRELVALITLNGGTFYADSVKGRFTISRDVAEHMLYLEMNSLNPEDTAVYFCVAGVESDNEEPTYWGQGTQVTVSS
# notes: periplasmic extract
# B6: anti-IL-12Rβ2 VHH clone 3CRHS166 (clone ID 20439) (VHH, not shown: small tags and cut ends)
# VHH: B5 VHH with A14S
# notes: periplasmic extract
# B7: anti-IL-12Rβ2 VHH clone 2CRHS4 (clone ID 20411) (VHH, not shown: small tags and cut ends)
# VHH: B5 VHH with A14P, E75G
# notes: periplasmic extract
# B8: anti-IL-12Rβ2 VHH clone 3CRHS67 (clone ID 20424) (VHH, not shown: small tags and cut ends)
# VHH: B5 VHH with R19T
# notes: periplasmic extract
# B9: anti-IL-12Rβ2 VHH clone 3CRHS156 (clone ID 20437) (VHH, not shown: small tags and cut ends)
# VHH: B5 VHH with A14S, T68A
# notes: periplasmic extract
# B10: anti-IL-12Rβ2 VHH clone 3CRH59 (clone ID 20385) (VHH, not shown: small tags and cut ends)
# VHH: QVQLQESGGGLVQPGGSLRLSCTASGFAFSSYWMYWVRQTPGKGFEWVSVVNPGGEITYYGDSMEDRFTISRDNAKNTLYLQMNSLKPEDTGLYYCARDRTTIDYTRTYYRGGQGTQVTVSS
# notes: periplasmic extract
# B11: anti-IL-12Rβ2 VHH clone 3CRH25 (clone ID 20378) (VHH, not shown: small tags and cut ends)
# VHH: QVQLQESGGGLVQAGDSLRLSCTASGHTFSRYTTIGWFRQAPGKDREFVAAIRWSGDITDYADAVKGRFTISRDNVKNTVYLQMNSLNPEDTAVYYCARGYSEYGVLSRNRGLYAYWGQGTQVTVSS
# notes: periplasmic extract
# B12: anti-IL-12Rβ2 VHH clone 3CRH64 (clone ID 20386) (VHH, not shown: small tags and cut ends)
# VHH: B11 VHH with D16G, M84T
# notes: periplasmic extract
# B13: anti-IL-12Rβ2 VHH clone 3CRHS77 (clone ID 20425) (VHH, not shown: small tags and cut ends)
# VHH: B11 VHH with D16G, R31S, D45E, R53G, D74H, K77E
# notes: periplasmic extract
# B14: anti-IL-12Rβ2 VHH clone 3CAHS43 (clone ID 20395) (VHH, not shown: small tags and cut ends)
# VHH: QVQLQESGGGSVQAGGSLRLSCAASGRTINAYIMGWFRQAPGKEREFVAAVSGSGGSTYYADSVKGRFTISRDNAKNTVNLQMDNLRSEDTDVYYCAATYESVYLRNPGQYDYWGQGTQVTVSS
# notes: periplasmic extract
# B15: anti-IL-12Rβ2 VHH clone 3CAHS53 (clone ID 20397) (VHH, not shown: small tags and cut ends)
# VHH: B14 VHH with S11L, Q13E, A14P, N74S, R106Q
# notes: periplasmic extract
# B16: anti-IL-12Rβ2 VHH clone 3CAHS150 (clone ID 20403) (VHH, not shown: small tags and cut ends)
# VHH: B14 VHH with I33V, V51I, R106Q
# notes: periplasmic extract
# B17: anti-IL-12Rβ2 VHH clone 3CAHS124 (clone ID 20400) (VHH, not shown: small tags and cut ends)
# VHH: B14 VHH with S11L, A14P, R106Q
# notes: periplasmic extract
# B18: anti-IL-12Rβ2 VHH clone 3CAHS52 (clone ID 20396) (VHH, not shown: small tags and cut ends)
# VHH: B14 VHH with R106Q
# notes: periplasmic extract
# B19: anti-IL-12Rβ2 VHH clone 3CRHS99 (clone ID 20427) (VHH, not shown: small tags and cut ends)
# VHH: QVQLQESGGGLVQPGGSLRLSCKASGFTFSTYAMSWVRQAPGKGLEWVSAINSGGLSTDYADSVEGRFTISRDDAKNMLFLQMNSLKAEDTARYYCAKYEDCSDYMCHRDRAGYWGQGTQVTVSS
# notes: periplasmic extract
# B20: anti-IL-12Rβ2 VHH clone 3CRHS106 (clone ID 20429) (VHH, not shown: small tags and cut ends)
# VHH: B19 VHH with I51V, A88P
# notes: periplasmic extract
# B21: anti-IL-12Rβ2 VHH clone 2CRH41 (clone ID 20365) (VHH, not shown: small tags and cut ends)
# VHH: QVQLQESGGGLVQPGGSLRLSCTASGFAFSSYWMYWVRQSPEKGFEWVSVVDTDGGITYYADSVKGRFTISRDNAKNTLYLQMNSLKPQDTALYYCARDRTTLEYTRTYYRTGQGTQVTVSS
# notes: periplasmic extract
# B22: anti-IL-12Rβ2 VHH clone 3CRHS163 (clone ID 20438) (VHH, not shown: small tags and cut ends)
# VHH: B21 VHH with S31T, V37I, D52N, D54G, G56D, Q89E, L103M, E104S, T112G
# notes: periplasmic extract
# Target: T1, biotinylated recombinant human IL-12Rβ2
# Assay: BLI, P.E., off-rate ranking
Response,koff,Binder
0.515,0.00379 s⁻¹,B1
0.482,0.00494 s⁻¹,B2
0.759,0.00443 s⁻¹,B3
0.352,0.00324 s⁻¹,B4
0.205,0.00275 s⁻¹,B5
0.149,0.00247 s⁻¹,B6
0.279,0.00311 s⁻¹,B7
0.416,0.00443 s⁻¹,B8
0.282,0.00297 s⁻¹,B9
0.487,0.00453 s⁻¹,B10
0.523,0.00205 s⁻¹,B11
0.726,0.00428 s⁻¹,B12
0.551,0.00426 s⁻¹,B13
0.605,0.00485 s⁻¹,B14
0.47,0.00479 s⁻¹,B15
0.31,0.00369 s⁻¹,B16
0.293,0.00324 s⁻¹,B17
0.508,0.00422 s⁻¹,B18
0.259,0.00405 s⁻¹,B19
0.297,0.00355 s⁻¹,B20
0.493,0.00496 s⁻¹,B21
0.339,0.00302 s⁻¹,B22

# Target: T1, biotinylated recombinant human IL-12Rβ2
# Assay: ELISA, P.E., biotinylated antigen
row,ELISA hIL-12RB2/control,Binder
1,5.87,B1
2,3.84,B2
3,9.56,B3
4,4.98,B4
5,23.7,B5
6,23.2,B6
7,12.5,B7
8,18.3,B8
9,24.5,B9
10,15.9,B10
11,5.16,B11
12,4.94,B12
13,6.37,B13
14,8.23,B14
15,6.58,B15
16,4.54,B16
17,5.67,B17
18,10,B18
19,3.13,B19
20,10.2,B20
21,3.8,B21
22,3.58,B22

# Target: T2, biotinylated recombinant mouse IL-12Rβ2
# Assay: ELISA, P.E., biotinylated antigen
row,ELISA mIL-12RB2/control,Binder
1,0.945,B1
2,1.05,B2
3,1.11,B3
4,1.07,B4
5,0.999,B5
6,1.06,B6
7,1.07,B7
8,1.19,B8
9,1.03,B9
10,1.89,B10
11,1.04,B11
12,1.41,B12
13,1.02,B13
14,1.31,B14
15,1.1,B15
16,0.988,B16
17,1,B17
18,1.22,B18
19,0.908,B19
20,1.03,B20
21,1.64,B21
22,0.927,B22
